# Biological target: Human CD3eg linker (human)
# Test: SPR; fold vs parent H183/L072
# Human CD3eg linker (human), sequence (chain, as listed by the source limits assumed): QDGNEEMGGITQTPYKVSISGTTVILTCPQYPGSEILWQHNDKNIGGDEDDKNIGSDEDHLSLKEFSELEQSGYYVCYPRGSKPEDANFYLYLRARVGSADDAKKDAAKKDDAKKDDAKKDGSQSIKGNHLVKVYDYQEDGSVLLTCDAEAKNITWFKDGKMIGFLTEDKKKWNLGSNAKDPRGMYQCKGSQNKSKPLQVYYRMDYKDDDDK
row,fold change of affinity [fold],Binder
1,0,"H183/L072 VL H34I (antibody, name in Kabat numbering, V domains shown) VH: QVQLVESGGGLVQPGRSLRLSCAASGFTFSNAWMHWVRQAPGKGLEWVAQIKDKGNAYAAYYAPSVKGRFTISRDDSKNSIYLQMNSLKTEDTAVYYCHYVHYASASTVLPAFGVDAWGQGTTVTVSS VL: DIVMTQSPLSLPVTPGEPASISCQASQELVHMNRNTYLIWYQQKPGQAPRLLIYKVSNRFPGVPDRFSGSGSGTDFTLKISRVEAEDVGVYYCAQGTSVPFTFGQGTKLEIK"
2,0,"H183/L072 VL N28L (antibody, name in Kabat numbering, V domains shown) VH: QVQLVESGGGLVQPGRSLRLSCAASGFTFSNAWMHWVRQAPGKGLEWVAQIKDKGNAYAAYYAPSVKGRFTISRDDSKNSIYLQMNSLKTEDTAVYYCHYVHYASASTVLPAFGVDAWGQGTTVTVSS VL: DIVMTQSPLSLPVTPGEPASISCQASQELVHMLRNTYLHWYQQKPGQAPRLLIYKVSNRFPGVPDRFSGSGSGTDFTLKISRVEAEDVGVYYCAQGTSVPFTFGQGTKLEIK"
3,0,"H183/L072 VL H27dP (antibody, name in Kabat numbering, V domains shown) VH: QVQLVESGGGLVQPGRSLRLSCAASGFTFSNAWMHWVRQAPGKGLEWVAQIKDKGNAYAAYYAPSVKGRFTISRDDSKNSIYLQMNSLKTEDTAVYYCHYVHYASASTVLPAFGVDAWGQGTTVTVSS VL: DIVMTQSPLSLPVTPGEPASISCQASQELVPMNRNTYLHWYQQKPGQAPRLLIYKVSNRFPGVPDRFSGSGSGTDFTLKISRVEAEDVGVYYCAQGTSVPFTFGQGTKLEIK"
4,0,"H183/L072 VL H27dL (antibody, name in Kabat numbering, V domains shown) VH: QVQLVESGGGLVQPGRSLRLSCAASGFTFSNAWMHWVRQAPGKGLEWVAQIKDKGNAYAAYYAPSVKGRFTISRDDSKNSIYLQMNSLKTEDTAVYYCHYVHYASASTVLPAFGVDAWGQGTTVTVSS VL: DIVMTQSPLSLPVTPGEPASISCQASQELVLMNRNTYLHWYQQKPGQAPRLLIYKVSNRFPGVPDRFSGSGSGTDFTLKISRVEAEDVGVYYCAQGTSVPFTFGQGTKLEIK"
5,0,"H183/L072 VL Q24P (antibody, name in Kabat numbering, V domains shown) VH: QVQLVESGGGLVQPGRSLRLSCAASGFTFSNAWMHWVRQAPGKGLEWVAQIKDKGNAYAAYYAPSVKGRFTISRDDSKNSIYLQMNSLKTEDTAVYYCHYVHYASASTVLPAFGVDAWGQGTTVTVSS VL: DIVMTQSPLSLPVTPGEPASISCPASQELVHMNRNTYLHWYQQKPGQAPRLLIYKVSNRFPGVPDRFSGSGSGTDFTLKISRVEAEDVGVYYCAQGTSVPFTFGQGTKLEIK"
6,0,"H183/L072 VL T31P (antibody, name in Kabat numbering, V domains shown) VH: QVQLVESGGGLVQPGRSLRLSCAASGFTFSNAWMHWVRQAPGKGLEWVAQIKDKGNAYAAYYAPSVKGRFTISRDDSKNSIYLQMNSLKTEDTAVYYCHYVHYASASTVLPAFGVDAWGQGTTVTVSS VL: DIVMTQSPLSLPVTPGEPASISCQASQELVHMNRNPYLHWYQQKPGQAPRLLIYKVSNRFPGVPDRFSGSGSGTDFTLKISRVEAEDVGVYYCAQGTSVPFTFGQGTKLEIK"
7,0,"H183/L072 VL Y32P (antibody, name in Kabat numbering, V domains shown) VH: QVQLVESGGGLVQPGRSLRLSCAASGFTFSNAWMHWVRQAPGKGLEWVAQIKDKGNAYAAYYAPSVKGRFTISRDDSKNSIYLQMNSLKTEDTAVYYCHYVHYASASTVLPAFGVDAWGQGTTVTVSS VL: DIVMTQSPLSLPVTPGEPASISCQASQELVHMNRNTPLHWYQQKPGQAPRLLIYKVSNRFPGVPDRFSGSGSGTDFTLKISRVEAEDVGVYYCAQGTSVPFTFGQGTKLEIK"
8,0,"H183/L072 VL H27dV (antibody, name in Kabat numbering, V domains shown) VH: QVQLVESGGGLVQPGRSLRLSCAASGFTFSNAWMHWVRQAPGKGLEWVAQIKDKGNAYAAYYAPSVKGRFTISRDDSKNSIYLQMNSLKTEDTAVYYCHYVHYASASTVLPAFGVDAWGQGTTVTVSS VL: DIVMTQSPLSLPVTPGEPASISCQASQELVVMNRNTYLHWYQQKPGQAPRLLIYKVSNRFPGVPDRFSGSGSGTDFTLKISRVEAEDVGVYYCAQGTSVPFTFGQGTKLEIK"
9,0,"H183/L072 VL R29P (antibody, name in Kabat numbering, V domains shown) VH: QVQLVESGGGLVQPGRSLRLSCAASGFTFSNAWMHWVRQAPGKGLEWVAQIKDKGNAYAAYYAPSVKGRFTISRDDSKNSIYLQMNSLKTEDTAVYYCHYVHYASASTVLPAFGVDAWGQGTTVTVSS VL: DIVMTQSPLSLPVTPGEPASISCQASQELVHMNPNTYLHWYQQKPGQAPRLLIYKVSNRFPGVPDRFSGSGSGTDFTLKISRVEAEDVGVYYCAQGTSVPFTFGQGTKLEIK"
10,0,"H183/L072 VL T31M (antibody, name in Kabat numbering, V domains shown) VH: QVQLVESGGGLVQPGRSLRLSCAASGFTFSNAWMHWVRQAPGKGLEWVAQIKDKGNAYAAYYAPSVKGRFTISRDDSKNSIYLQMNSLKTEDTAVYYCHYVHYASASTVLPAFGVDAWGQGTTVTVSS VL: DIVMTQSPLSLPVTPGEPASISCQASQELVHMNRNMYLHWYQQKPGQAPRLLIYKVSNRFPGVPDRFSGSGSGTDFTLKISRVEAEDVGVYYCAQGTSVPFTFGQGTKLEIK"
11,0,"H183/L072 VL V27cP (antibody, name in Kabat numbering, V domains shown) VH: QVQLVESGGGLVQPGRSLRLSCAASGFTFSNAWMHWVRQAPGKGLEWVAQIKDKGNAYAAYYAPSVKGRFTISRDDSKNSIYLQMNSLKTEDTAVYYCHYVHYASASTVLPAFGVDAWGQGTTVTVSS VL: DIVMTQSPLSLPVTPGEPASISCQASQELPHMNRNTYLHWYQQKPGQAPRLLIYKVSNRFPGVPDRFSGSGSGTDFTLKISRVEAEDVGVYYCAQGTSVPFTFGQGTKLEIK"
12,0,"H183/L072 VL H27dM (antibody, name in Kabat numbering, V domains shown) VH: QVQLVESGGGLVQPGRSLRLSCAASGFTFSNAWMHWVRQAPGKGLEWVAQIKDKGNAYAAYYAPSVKGRFTISRDDSKNSIYLQMNSLKTEDTAVYYCHYVHYASASTVLPAFGVDAWGQGTTVTVSS VL: DIVMTQSPLSLPVTPGEPASISCQASQELVMMNRNTYLHWYQQKPGQAPRLLIYKVSNRFPGVPDRFSGSGSGTDFTLKISRVEAEDVGVYYCAQGTSVPFTFGQGTKLEIK"
13,0,"H183/L072 VL N28P (antibody, name in Kabat numbering, V domains shown) VH: QVQLVESGGGLVQPGRSLRLSCAASGFTFSNAWMHWVRQAPGKGLEWVAQIKDKGNAYAAYYAPSVKGRFTISRDDSKNSIYLQMNSLKTEDTAVYYCHYVHYASASTVLPAFGVDAWGQGTTVTVSS VL: DIVMTQSPLSLPVTPGEPASISCQASQELVHMPRNTYLHWYQQKPGQAPRLLIYKVSNRFPGVPDRFSGSGSGTDFTLKISRVEAEDVGVYYCAQGTSVPFTFGQGTKLEIK"
14,0,"H183/L072 VL Q27P (antibody, name in Kabat numbering, V domains shown) VH: QVQLVESGGGLVQPGRSLRLSCAASGFTFSNAWMHWVRQAPGKGLEWVAQIKDKGNAYAAYYAPSVKGRFTISRDDSKNSIYLQMNSLKTEDTAVYYCHYVHYASASTVLPAFGVDAWGQGTTVTVSS VL: DIVMTQSPLSLPVTPGEPASISCQASPELVHMNRNTYLHWYQQKPGQAPRLLIYKVSNRFPGVPDRFSGSGSGTDFTLKISRVEAEDVGVYYCAQGTSVPFTFGQGTKLEIK"
15,0,"H183/L072 VL N28M (antibody, name in Kabat numbering, V domains shown) VH: QVQLVESGGGLVQPGRSLRLSCAASGFTFSNAWMHWVRQAPGKGLEWVAQIKDKGNAYAAYYAPSVKGRFTISRDDSKNSIYLQMNSLKTEDTAVYYCHYVHYASASTVLPAFGVDAWGQGTTVTVSS VL: DIVMTQSPLSLPVTPGEPASISCQASQELVHMMRNTYLHWYQQKPGQAPRLLIYKVSNRFPGVPDRFSGSGSGTDFTLKISRVEAEDVGVYYCAQGTSVPFTFGQGTKLEIK"
16,0,"H183/L072 VL Y32M (antibody, name in Kabat numbering, V domains shown) VH: QVQLVESGGGLVQPGRSLRLSCAASGFTFSNAWMHWVRQAPGKGLEWVAQIKDKGNAYAAYYAPSVKGRFTISRDDSKNSIYLQMNSLKTEDTAVYYCHYVHYASASTVLPAFGVDAWGQGTTVTVSS VL: DIVMTQSPLSLPVTPGEPASISCQASQELVHMNRNTMLHWYQQKPGQAPRLLIYKVSNRFPGVPDRFSGSGSGTDFTLKISRVEAEDVGVYYCAQGTSVPFTFGQGTKLEIK"
17,0,"H183/L072 VL N30P (antibody, name in Kabat numbering, V domains shown) VH: QVQLVESGGGLVQPGRSLRLSCAASGFTFSNAWMHWVRQAPGKGLEWVAQIKDKGNAYAAYYAPSVKGRFTISRDDSKNSIYLQMNSLKTEDTAVYYCHYVHYASASTVLPAFGVDAWGQGTTVTVSS VL: DIVMTQSPLSLPVTPGEPASISCQASQELVHMNRPTYLHWYQQKPGQAPRLLIYKVSNRFPGVPDRFSGSGSGTDFTLKISRVEAEDVGVYYCAQGTSVPFTFGQGTKLEIK"
18,0,"H183/L072 VL A25L (antibody, name in Kabat numbering, V domains shown) VH: QVQLVESGGGLVQPGRSLRLSCAASGFTFSNAWMHWVRQAPGKGLEWVAQIKDKGNAYAAYYAPSVKGRFTISRDDSKNSIYLQMNSLKTEDTAVYYCHYVHYASASTVLPAFGVDAWGQGTTVTVSS VL: DIVMTQSPLSLPVTPGEPASISCQLSQELVHMNRNTYLHWYQQKPGQAPRLLIYKVSNRFPGVPDRFSGSGSGTDFTLKISRVEAEDVGVYYCAQGTSVPFTFGQGTKLEIK"
19,0,"H183/L072 VL L33P (antibody, name in Kabat numbering, V domains shown) VH: QVQLVESGGGLVQPGRSLRLSCAASGFTFSNAWMHWVRQAPGKGLEWVAQIKDKGNAYAAYYAPSVKGRFTISRDDSKNSIYLQMNSLKTEDTAVYYCHYVHYASASTVLPAFGVDAWGQGTTVTVSS VL: DIVMTQSPLSLPVTPGEPASISCQASQELVHMNRNTYPHWYQQKPGQAPRLLIYKVSNRFPGVPDRFSGSGSGTDFTLKISRVEAEDVGVYYCAQGTSVPFTFGQGTKLEIK"
20,0,"H183/L072 VL H34M (antibody, name in Kabat numbering, V domains shown) VH: QVQLVESGGGLVQPGRSLRLSCAASGFTFSNAWMHWVRQAPGKGLEWVAQIKDKGNAYAAYYAPSVKGRFTISRDDSKNSIYLQMNSLKTEDTAVYYCHYVHYASASTVLPAFGVDAWGQGTTVTVSS VL: DIVMTQSPLSLPVTPGEPASISCQASQELVHMNRNTYLMWYQQKPGQAPRLLIYKVSNRFPGVPDRFSGSGSGTDFTLKISRVEAEDVGVYYCAQGTSVPFTFGQGTKLEIK"
21,0,"H183/L072 VL H34P (antibody, name in Kabat numbering, V domains shown) VH: QVQLVESGGGLVQPGRSLRLSCAASGFTFSNAWMHWVRQAPGKGLEWVAQIKDKGNAYAAYYAPSVKGRFTISRDDSKNSIYLQMNSLKTEDTAVYYCHYVHYASASTVLPAFGVDAWGQGTTVTVSS VL: DIVMTQSPLSLPVTPGEPASISCQASQELVHMNRNTYLPWYQQKPGQAPRLLIYKVSNRFPGVPDRFSGSGSGTDFTLKISRVEAEDVGVYYCAQGTSVPFTFGQGTKLEIK"

# — patent US20210388087A1
